# Reference: patent publication US20200057058A1 (MIT, published 2020)
# Tests used:
# [1] = target: monomeric streptavidin variant mSA2; assay: apparent Kd (Kd,app); fluorescent binding curve, labeled mSA2 in 50% urine, 4 h; quadratic fit
# [2] = target: T1, streptavidin (UniProt P22629 37-163, limits assumed); assay: sandwich assay: SA in 50% urine, biotin-HRP/TMB detection
# T1 construct: It was used without a stated label in the sandwich assays; also called SA
# Description: (§1) Each well was submerged in 1 mL of 1% BSA in Milli-Q water, and the 12-well plate was incubated at 37° C. for 30 minutes. The wells were rinsed twice by adding 2 mL of Milli-Q water and gently shaking the well plate at 70 rpm for 5 minutes. 1 mL of streptavidin diluted in PBS, urine, or blood serum (prepared as described in the Fluorescent Assays section) containing 0.1% BSA was then added to each well, and the well plate was shaken at 70 rpm for 4 hours at room temperature. Wells were rinsed twice with 2 mL of Milli-Q water then twice with 2 mL of 0.1% BSA in Milli-Q water by shaking at 70 rpm for 5 minutes. After rinsing, wells were submerged in 1 mL of 200 ng/mL biotin-HRP in Milli-Q water containing 0.1% BSA, and the well plate was shaken at 70 rpm for 1 hour at room temperature. Wells were then rinsed with water and 0.1% BSA as described previously. 1 mL of solution from a Pierce TMB substrate kit (Thermo Fisher Scientific) was added to each well, and the well plate was shaken vigorously at 125 rpm for 15 minutes at room temperature. 1 mL of 2M H2SO4 was added to each well, and the absorbance at 450 nm was read using a Tecan Infinite M200 PRO plate reader.
# (§2) The general procedure for this proof-of-concept experiment is diagrammed in FIG. 28. Films were first exposed to SA solutions and rinsed to remove unbound analyte. Taking advantage of the strong interaction between SA and biotin, thin films were then submerged in a solution of biotinylated horseradish peroxidase (biotin-HRP). Bound SA was detected colorimetrically through the HRP-mediated oxidation of 3,3′,5,5′-tetramethylbenzidine (TMB). Attempts to perform this assay using mSA2 as the analyte were unsuccessful, even when run on an rcSso7d.SA monolayer.
# [3] = target: T1, streptavidin; assay: fluorescent binding curve, labeled SA in 50% urine, 4 h; quadratic fit
# [4] = target: monomeric streptavidin variant mSA2; assay: fluorescent binding curve, labeled mSA2 in 50% urine, 4 h; quadratic fit
# [5] = target: T1, streptavidin; assay: fluorescent binding curve, labeled SA in 50% blood serum, 4 h; quadratic fit
# [6] = target: monomeric streptavidin variant mSA2; assay: fluorescent binding curves, labeled mSA2 in 50% urine or 50% blood serum, 4 h
# [7] = target: monomeric streptavidin variant mSA2; assay: fluorescent binding assay, labeled mSA2 in 50% blood serum on thin film, 4 h exposure
# Description: (§3) The binding function of rcSso7d.SA oligomer-PNIPAM thin films was measured using fluorescently-labeled monomeric streptavidin (mSA2) and fluorescently-labeled streptavidin (SA). Details for the expression, purification, and fluorescent labeling of mSA2 are provided below. Samples were prepared by serial dilution of SA or mSA2 in PBS (pH 7.4), human urine (diluted to 50% v/v in PBS, pH 7.4), or blood serum (obtained as the supernatant by centrifuging whole blood at 1500×g for 10 minutes, then diluted to 50% v/v in PBS, pH 7.4). 0.5 μL drops of solutions containing serially diluted fluorescent mSA2 and fluorescent SA samples in PBS (pH 7.4) were gently applied to the surface of each bioconjugate thin film. Films were incubated in a sealed chamber saturated with water vapor at room temperature to prevent to prevent drying of the applied fluorescent samples. […] Fluorescence microscopy images were acquired at 4× magnification using a Cy5 filter set and exposure time of 5000 ms on an Olympus IX-81 inverted fluorescence microscope with an AxioCam HRC CCD camera. Fluorescent intensity was calculated using ImageJ software⁶⁷ by determining the average fluorescent signal in a rectangular area of the fluorescent image free of defects and occupying no less than half of the full sample application area.
# (§4) To evaluate how the apparent size-based diffusion properties translated to biosensing capabilities, binding curves were measured using SA and mSA2 solutions in buffer. Binding curves were fit with a quadratic model that is a function of three parameters: the average MFI per binding event a, the total concentration of binding sites [P]T, and the apparent dissociation constant K_{d,app} describing the binding equilibrium between analyte and binding sites within the thin film.
# [8] = target: T1, streptavidin; assay: fluorescent binding assay, labeled SA in 50% urine on thin film, 4 h exposure
# [9] = target: T1, streptavidin; assay: apparent Kd (Kd,app); fluorescent binding curve, labeled SA in 50% blood serum, 4 h; quadratic fit
# [10] = target: T1, streptavidin; assay: apparent Kd (Kd,app); fluorescent binding curve, labeled SA in PBS, 0.5 h exposure; quadratic fit
# [11] = target: T1, streptavidin; assay: fluorescent binding curve, labeled SA in PBS, 4 h exposure; quadratic fit
# [12] = target: T1, streptavidin; assay: fluorescent binding assay, labeled SA in 50% blood serum on thin film, 4 h exposure
# [13] = target: T1, streptavidin; assay: fluorescent binding curve, labeled SA in PBS, 30 min exposure
# Description: as §3, with “film.” for “film. Films were incubated in a sealed chamber saturated with water vapor at room temperature to prevent to prevent drying of the applied fluorescent samples.”
# (§5) To evaluate how the apparent size-based diffusion properties translated to biosensing capabilities, binding curves were measured using SA and mSA2 solutions in buffer. […]
# [14] = target: monomeric streptavidin variant mSA2; assay: fluorescent binding assay, labeled mSA2 in 50% urine on thin film, 4 h exposure
# Description: as §3, §4
# [15] = target: T1, streptavidin; assay: apparent Kd (Kd,app); fluorescent binding curve, labeled SA in 50% urine, 4 h; quadratic fit
# [16] = target: T1, streptavidin; assay: apparent Kd (Kd,app); fluorescent binding curve, labeled SA in PBS, 4 h exposure; quadratic fit
# [17] = target: monomeric streptavidin variant mSA2; assay: fluorescent binding curve, labeled mSA2 in PBS, 4 h exposure
# Description: as §3, with “film.” for “film. Films were incubated in a sealed chamber saturated with water vapor at room temperature to prevent to prevent drying of the applied fluorescent samples.”
# as §5
# [18] = target: T1, streptavidin; assay: sandwich assay, SA in 50% blood serum, detection with biotin-HRP and TMB
# Description: as §1, §2
# [19] = target: monomeric streptavidin variant mSA2; assay: fluorescent binding curve, labeled mSA2 in PBS, 4 h exposure; quadratic fit
# Description: as §3, §4
# [20] = target: monomeric streptavidin variant mSA2; assay: apparent Kd (Kd,app); fluorescent binding curve, labeled mSA2 in 50% blood serum, 4 h; quadratic fit
# [21] = target: monomeric streptavidin variant mSA2; assay: fluorescent binding curve, labeled mSA2 in 50% blood serum, 4 h; quadratic fit
# [22] = target: T1, streptavidin; assay: fluorescent binding curve, labeled SA in PBS, 4 h exposure
# Description: as §3, with “film.” for “film. Films were incubated in a sealed chamber saturated with water vapor at room temperature to prevent to prevent drying of the applied fluorescent samples.”
# as §5
# [23] = target: T1, streptavidin; assay: sandwich assay: SA in 50% blood serum, biotin-HRP/TMB detection
# Description: as §1, §2
# [24] = target: monomeric streptavidin variant mSA2; assay: apparent Kd (Kd,app); fluorescent binding curve, labeled mSA2 in PBS, 0.5 h exposure; quadratic fit
# [25] = target: monomeric streptavidin variant mSA2; assay: apparent Kd (Kd,app); fluorescent binding curve, labeled mSA2 in PBS, 4 h exposure; quadratic fit
# Description: as §3, §4
# [26] = target: monomeric streptavidin variant mSA2; assay: fluorescent binding curve fits, labeled mSA2 in PBS
# Description: The binding function of rcSso7d.SA oligomer-PNIPAM thin films was measured using fluorescently-labeled monomeric streptavidin (mSA2) and fluorescently-labeled streptavidin (SA). Details for the expression, purification, and fluorescent labeling of mSA2 are provided below. Samples were prepared by serial dilution of SA or mSA2 in PBS (pH 7.4), human urine (diluted to 50% v/v in PBS, pH 7.4), or blood serum (obtained as the supernatant by centrifuging whole blood at 1500×g for 10 minutes, then diluted to 50% v/v in PBS, pH 7.4). […] After 1 hour, films were thoroughly rinsed with water for 10 seconds (a time determined to be sufficient to remove unbound molecules from the film, see FIG. 33, dried under filtered airflow, and immediately analyzed for fluorescent signal. Fluorescence microscopy images were acquired at 4× magnification using a Cy5 filter set and exposure time of 5000 ms on an Olympus IX-81 inverted fluorescence microscope with an AxioCam HRC CCD camera. Fluorescent intensity was calculated using ImageJ software⁶⁷ by determining the average fluorescent signal in a rectangular area of the fluorescent image free of defects and occupying no less than half of the full sample application area.
# as §5
# [27] = target: monomeric streptavidin variant mSA2; assay: apparent Kd (Kd,app); fluorescent binding curve, labeled mSA2 in PBS, 8 h exposure; quadratic fit
# Description: as §3, with “film.” for “film. Films were incubated in a sealed chamber saturated with water vapor at room temperature to prevent to prevent drying of the applied fluorescent samples.”
# as §5
# T1 sequence (P22629 37-163 limits assumed): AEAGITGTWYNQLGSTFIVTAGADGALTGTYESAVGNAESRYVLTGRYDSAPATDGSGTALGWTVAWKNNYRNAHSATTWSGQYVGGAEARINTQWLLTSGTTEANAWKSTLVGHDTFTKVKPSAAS
binder,measurement,setting,value
"3xSP9.6k thin film (3x rcSso7d.SA-PNIPAM conjugate, PNIPAM Mn 9.6 kDa) (designed binder, maleimide end-functionalized PNIPAM (Mn 9.6 kDa) on the N-terminal Cys; film lightly crosslinked with glutaraldehyde) MGSSHHHHHHSSGLVPRGSHMCATVKFTYQGEEKQVDISKIKIVARDGQYIDFKYDEGGGAYGYGWVSEKDAPKELLQMLEKQGGGGSGGGGSMATVKFTYQGEEKQVDISKIKIVARDGQYIDFKYDEGGGAYGYGWVSEKDAPKELLQMLEKQGGGGSGGGGSMATVKFTYQGEEKQVDISKIKIVARDGQYIDFKYDEGGGAYGYGWVSEKDAPKELLQMLEKQGG",Kd,[1],26 µM
same,LOD,[2],39 nM
same,[P]T (total concentration of binding sites),[3],0.26 nM
same,[P]T (total concentration of binding sites),[4],17 nM
same,[P]T (total concentration of binding sites),[5],0.27 nM
same,LOD relative to rcSso7d.SA monolayer,[6],2 orders of magnitude lower
same,Limit of Detection,[7],10.5 nM
same,Limit of Detection,[8],1300 nM
same,Kd,[9],50 µM
same,Kd,[10],60 µM
same,[P]T (total concentration of binding sites),[11],0.9 nM
same,Limit of Detection,[12],1700 nM
same,sensitivity relative to rcSso7d.SA monolayer,[13],> 10 fold
same,Limit of Detection,[14],9.8 nM
same,Kd,[15],30 µM
same,Kd,[16],40 µM
same,reduction in LOD relative to rcSso7d.SA monolayer,[17],10 fold
same,LOD relative to rcSso7d.SA monolayer,[18],2 fold
same,[P]T (total concentration of binding sites),[19],0.7 nM
same,Kd,[20],12.2 µM
same,[P]T (total concentration of binding sites),[21],9.4 nM
same,sensitivity relative to rcSso7d.SA monolayer,[22],~2 fold
same,LOD,[23],87 nM
same,Kd,[24],11 µM
same,Kd,[25],3.7 µM
"3xSP56.1k thin film (3x rcSso7d.SA-PNIPAM conjugate, PNIPAM Mn 56.1 kDa) (designed binder, maleimide end-functionalized PNIPAM (Mn 56.1 kDa) on the N-terminal Cys; film lightly crosslinked with glutaraldehyde) MGSSHHHHHHSSGLVPRGSHMCATVKFTYQGEEKQVDISKIKIVARDGQYIDFKYDEGGGAYGYGWVSEKDAPKELLQMLEKQGGGGSGGGGSMATVKFTYQGEEKQVDISKIKIVARDGQYIDFKYDEGGGAYGYGWVSEKDAPKELLQMLEKQGGGGSGGGGSMATVKFTYQGEEKQVDISKIKIVARDGQYIDFKYDEGGGAYGYGWVSEKDAPKELLQMLEKQGG",accessible binding sites relative to the 3×SP9.6k film,[26],> 4 fold
same,reduction in LOD relative to rcSso7d.SA monolayer,[17],~4 fold
same,[P]T (total concentration of binding sites),[19],3.2 nM
same,Kd,[27],13 µM
same,Kd,[24],33 µM
same,Kd,[25],16 µM
